Test results as given in patent publication US20020182701.

T1: Met-Gly-Met-Met peptide substrate
T1 chain: MGMM


Target: T1, Met-Gly-Met-Met peptide substrate

Row | Protein | Specific activity (MetAP activity on 2 mM Met-Gly-Met-Met) | catalytic activity in vitro
1 | N-terminal HA-tagged wild-type yeast MetAP2 (protein) YPYDVPDYAMTDAEIENSPASDLKELNLENEGVEQQDQAKADESDPVESKKKKNKKKKKKKSNVKKIELLFPDGKYPEGAWMDYHQDFNLQRTTDEESRYLKRDLERAEHWNDVRKGAEIHRRVRRAIKDRIVPGMKLMDIADMIENTTRKYTGAENLLAMEDPKSQGIGFPTGLSLNHCAAHFTPNAGDKTVLKYEDVMKVDYGVQVNGNIIDSAFTVSFDPQYDNLLAAVKDATYTGIKEAGIDVRLTDIGEAIQEVMESYEVEINGETYQVKPCRNLCGHSIAPYRIHGGKSVPIVKNGDTTKMEEGEHFAIETFGSTGRGYVTAGGEVSHYARSAEDHQVMPTLDSAKNLLKTIDRNFGTLPFCRRYLDRLGQEKYLFALNNLVRHGLVQDYPPLNDIPGSYTAQFEHTILLHAHKKEVVSKGDDYGKMRFQMASSLGIILL | Specific activity for the wild-type MetAP2 was 11±0.5 U/mg | –
2 | N-terminal HA-tagged yeast MetAP2 (H174A) (protein) YPYDVPDYAMTDAEIENSPASDLKELNLENEGVEQQDQAKADESDPVESKKKKNKKKKKKKSNVKKIELLFPDGKYPEGAWMDYHQDFNLQRTTDEESRYLKRDLERAEHWNDVRKGAEIHRRVRRAIKDRIVPGMKLMDIADMIENTTRKYTGAENLLAMEDPKSQGIGFPTGLSLNHCAAAFTPNAGDKTVLKYEDVMKVDYGVQVNGNIIDSAFTVSFDPQYDNLLAAVKDATYTGIKEAGIDVRLTDIGEAIQEVMESYEVEINGETYQVKPCRNLCGHSIAPYRIHGGKSVPIVKNGDTTKMEEGEHFAIETFGSTGRGYVTAGGEVSHYARSAEDHQVMPTLDSAKNLLKTIDRNFGTLPFCRRYLDRLGQEKYLFALNNLVRHGLVQDYPPLNDIPGSYTAQFEHTILLHAHKKEVVSKGDDYGKMRFQMASSLGIILL | – | displayed no detectable activity against a peptide substrate (MGMM)
